Measured values published in PMC2865030.

Experiments:
Assay in all cases: ITC
[1] = biological target: yeast Hsp90 (wild type, His-tagged) (yeast) (UniProt P02829)
[2] = biological target: yeast Hsp90 M705V (His-tagged) (yeast) (UniProt P02829)
[3] = biological target: Tah1 (TPR-containing protein associated with Hsp90) (S. cerevisiae) (UniProt P25638)
Chain of Tah1 (TPR-containing protein associated with Hsp90) (S. cerevisiae) (P25638 whole entry): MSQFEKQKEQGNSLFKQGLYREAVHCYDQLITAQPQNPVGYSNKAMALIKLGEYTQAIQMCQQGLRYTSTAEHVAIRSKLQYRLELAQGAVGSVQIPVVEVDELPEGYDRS

Chain of mouse CHIP (C-terminal of Hsp70-interacting protein) (Q9WUD1 whole entry): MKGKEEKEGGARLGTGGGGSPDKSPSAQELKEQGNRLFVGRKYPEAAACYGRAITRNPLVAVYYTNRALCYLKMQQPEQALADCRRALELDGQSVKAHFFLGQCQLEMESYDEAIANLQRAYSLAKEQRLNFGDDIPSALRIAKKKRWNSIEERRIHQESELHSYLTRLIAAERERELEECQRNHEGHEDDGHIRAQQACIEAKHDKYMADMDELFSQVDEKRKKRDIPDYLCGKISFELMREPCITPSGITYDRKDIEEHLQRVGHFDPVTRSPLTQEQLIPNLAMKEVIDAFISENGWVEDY
Chain of C-terminal domain of Sti1 (cSti1), His-tagged (domain or fragment) (P15705 133-581): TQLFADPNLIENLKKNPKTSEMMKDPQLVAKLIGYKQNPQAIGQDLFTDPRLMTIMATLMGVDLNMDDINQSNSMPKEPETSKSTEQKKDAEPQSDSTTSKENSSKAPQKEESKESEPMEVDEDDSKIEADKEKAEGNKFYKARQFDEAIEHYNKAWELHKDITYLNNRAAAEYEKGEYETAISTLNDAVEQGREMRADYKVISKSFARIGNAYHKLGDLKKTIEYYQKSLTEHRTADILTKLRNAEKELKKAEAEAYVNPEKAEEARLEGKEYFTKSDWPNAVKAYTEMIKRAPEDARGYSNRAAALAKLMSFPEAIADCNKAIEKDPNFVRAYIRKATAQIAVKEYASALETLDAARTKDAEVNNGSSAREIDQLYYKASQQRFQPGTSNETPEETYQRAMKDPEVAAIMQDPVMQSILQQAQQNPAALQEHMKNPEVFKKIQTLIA

C-terminal domain of Sti1 (cSti1), His-tagged (domain or fragment)
stoichiometry N [1]: 0.88

mouse CHIP (C-terminal of Hsp70-interacting protein) (from UniProt Q9WUD1 1-304) (natural protein)
stoichiometry N [1]: 1.2
Kd [2]: 6.7 µM
stoichiometry N [2]: 1.1

… decapeptide (Ssa1 C-terminal decapeptide, Val at -4 replaced by Ala)
Kd [3]: 14.8 µM
stoichiometry N [3]: 1.1

… decapeptide (Ssa1 C-terminal decapeptide, Val at -4 replaced by Met)
Kd [3]: 4.2 µM
stoichiometry N [3]: 0.98

… decapeptide (yeast Hsp90 C-terminal decapeptide, Met at -4 replaced by Ala)
Kd [3]: 3.3 µM
stoichiometry N [3]: 0.89

… decapeptide (yeast Hsp90 C-terminal decapeptide, Met at -4 replaced by Val)
Kd [3]: 9.8 µM
stoichiometry N [3]: 1.1

… decapeptide (yeast Hsp90 C-terminal decapeptide, TE replaced by Ala-Ala)
Kd [3]: 0.75 µM
stoichiometry N [3]: 0.81
